Reference: US20140147868A1
Positions of bridges follow the written chain, without caps; N, C: chain ends. No end group written: not given here.

Key:
[1] = target: unrelated control antibody; experiment: phage ELISA, coated control mAb, 10^10 phagemid per well
[2] = target: bovine serum albumin (bovine) (UniProt P02769); experiment: phage ELISA, BSA only, 10^10 phagemid per well
[3] = target: unrelated control antibody; experiment: phage ELISA, coated control mAb, 10^8 phagemid per well
[4] = target: unrelated control antibody; experiment: phage ELISA, coated control mAb, 10^9 phagemid per well
[5] = target: bovine serum albumin (bovine) (UniProt P02769); experiment: phage ELISA, BSA only, 10^9 phagemid per well
[6] = target: bovine serum albumin (bovine) (UniProt P02769); experiment: phage ELISA, BSA only, 10^8 phagemid per well

Sequence of bovine serum albumin (bovine) (P02769 25-607 limits assumed): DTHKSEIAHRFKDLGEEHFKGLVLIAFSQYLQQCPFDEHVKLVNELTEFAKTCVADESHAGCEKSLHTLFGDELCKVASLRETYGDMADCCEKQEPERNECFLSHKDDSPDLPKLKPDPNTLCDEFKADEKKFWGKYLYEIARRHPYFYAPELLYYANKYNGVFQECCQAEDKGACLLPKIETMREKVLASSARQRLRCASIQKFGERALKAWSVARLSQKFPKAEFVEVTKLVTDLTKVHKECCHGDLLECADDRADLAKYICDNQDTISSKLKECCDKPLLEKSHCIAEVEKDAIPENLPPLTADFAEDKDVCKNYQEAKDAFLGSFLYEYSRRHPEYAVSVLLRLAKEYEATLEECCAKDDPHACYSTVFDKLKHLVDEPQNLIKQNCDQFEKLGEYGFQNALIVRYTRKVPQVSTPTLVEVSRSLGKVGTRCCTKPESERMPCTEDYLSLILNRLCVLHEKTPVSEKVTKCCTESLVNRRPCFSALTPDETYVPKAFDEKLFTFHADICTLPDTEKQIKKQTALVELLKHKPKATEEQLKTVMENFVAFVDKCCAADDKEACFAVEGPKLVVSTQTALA

Binder | ELISA (absorbance units) (absorbance units) [1] | ELISA (absorbance units) (absorbance units) [2] | ELISA (absorbance units) (absorbance units) [3] | ELISA (absorbance units) (absorbance units) [4] | ELISA (absorbance units) (absorbance units) [5] | ELISA (absorbance units) (absorbance units) [6]
CSGLYPWDMFRCS (disulfide 1-12 (inferred); also: displayed on phage (phagemid)) [phagemid CS1-9p (phage-displayed disulfide cyclized 13 mer peptide)] | 0.213 | 0.221 | 0.209 | 0.204 | 0.22 | 0.216
CSFRYQWDMFRCS (disulfide 1-12 (inferred); also: displayed on phage (phagemid)) [phagemid CS1-11p (phage-displayed disulfide cyclized 13 mer peptide)] | 0.242 | 0.304 | 0.252 | 0.258 | 0.278 | 0.268
CSGLYPWDYFMCS (disulfide 1-12 (inferred); also: displayed on phage (phagemid)) [phagemid CS1-29p (phage-displayed disulfide cyclized 13 mer peptide)] | 0.148 | 0.141 | 0.125 | 0.136 | 0.147 | 0.127
CSFFYSLCYCWCS (disulfide (positions not given here); also: four Cys, disulfide pairing not given here) [phagemid CS1-31p (phage-displayed disulfide cyclized 13 mer peptide)] | 0.125 | 0.112 | 0.116 | 0.118 | 0.114 | 0.109
CSLFYLWDQDRCS (disulfide 1-12 (inferred); also: displayed on phage (phagemid), coat fusion not given here) [phagemid CS1-2p (phage-displayed disulfide cyclized 13 mer peptide)] | 0.228 | 0.327 | 0.188 | 0.199 | 0.277 | 0.264
CSFRYLWDQDRCS (disulfide 1-12 (inferred); also: displayed on phage (phagemid)) [phagemid CS1-6p (phage-displayed disulfide cyclized 13 mer peptide)] | 0.203 | 0.275 | 0.173 | 0.172 | 0.27 | 0.254
